Key:
[1] = biological target: T1, complement Factor D (fD) in C1q-depleted human serum (Homo sapiens, UniProt P00746 SEQ:1-228); experiment: inhibition; hemolysis, sd 1.4; conditions: protein: extract; tags: endogenous fD, about 9.6 nM in 10% serum; hairpin
Method: (§1) In V-bottom 96-well plates the following reagents were added to a final volume of 250 μL: appropriate volume of 1× Veronal buffer with 0.1% gelatin, 100 μL aptamer, 30 μL of C1q-depleted human serum and 20 μl RBCs. This mixture was incubated for 25 minutes at room temperature, then the reaction was stopped by the addition of 5 μL of 500 mM EDTA. The plate was centrifuged for 5 minutes at 500×g at room temperature, then 100 μL of supernatant was removed and the extent of RBC lysis was determined by measuring absorbance at 405 nm.
(§2) The potency of the PEG-aptamers P01, P04, P06, P07 and P08 compared to their non-pegylated counterparts was determined in the alternative complement-dependent hemolysis assay as described in Example 2.

complement Factor D (fD) [2] = biological target: T2, complement Factor D (fD) (Homo sapiens, UniProt P00746 SEQ:1-228); experiment: TR-FRET, 50 mM MOPS pH 7.4, 125 mM NaCl, 1 mM Ca and Mg, 25 C; conditions: tags: His-tagged recombinant, bead-immobilized via His capture beads (flow) or anti-His Eu (TR-FRET); hairpin
Method: (§3) The binding affinity of aptamers for fD was determined in solution using a homogenous time-resolved fluorescence resonance energy transfer (TR-FRET) assay (Table 21). In brief, 2.5 nM recombinant human Factor D with a hexahistidine tag (SEQ ID NO:324) (His), 2.5 nM anti-His Europium, and varied concentrations of Dylight® 650-labeled aptamer was added to half-well black 96-well plates in TR-FRET buffer (50 mM MOPS, pH 7.4, 125 mM NaCl, 5 mM KCl, 0.1 mg/mL BSA, 50 μM CHAPS, 1 mM CaCl₂ and 1 mM MgCl₂). After 1 hour incubation at 25° C., binding activity was assessed using a BioTek® Cytation™ 5 plate reader. Affinity binding constants were calculated as the concentration at which 50% of aptamer is bound using a single site binding model, with values ranging from 0.66 nM to 2.5 nM (Table 21).

complement Factor D (fD) [3] = biological target: T2, complement Factor D (fD); experiment: SPR; fD immobilized; conditions: tags: amine-coupled to dextran chip for SPR; free in esterase assay; hairpin
Method: (§4) The binding affinity of aptamers for fD was determined by surface plasmon resonance (SPR) on a Reichert4 SPR System, where either aptamer or fD was immobilized as ligand on a solid surface and the interactant analyte was flowed in solution over the immobilized ligand (Table 20).

complement Factor D (fD) [4] = biological target: T2, complement Factor D (fD); experiment: flow; bead-based direct binding; conditions: tags: His-tagged recombinant, bead-immobilized via His capture beads (flow) or anti-His Eu (TR-FRET); hairpin
[5] = biological target: T1, complement Factor D (fD) in …; experiment: inhibition; hemolysis, sd 0.8; conditions: protein: extract; tags: endogenous fD, about 9.6 nM in 10% serum; hairpin
Method: as §1, §2

complement Factor D (fD) [6] = biological target: T2, complement Factor D (fD); experiment: SPR; conditions: tags: amine-coupled to dextran chip for SPR; free in esterase assay; hairpin
Method: as §4

complement Factor D (fD) [7] = biological target: T2, complement Factor D (fD); experiment: TR-FRET, 25 C; conditions: tags: His-tagged recombinant, bead-immobilized via His capture beads (flow) or anti-His Eu (TR-FRET); hairpin
Method: as §3

[8] = biological target: T1, complement Factor D (fD) in …; experiment: inhibition; hemolysis, sd 0.1; conditions: protein: extract; tags: endogenous fD, about 9.6 nM in 10% serum; hairpin
Method: as §1, §2

[9] = biological target: T1, complement Factor D (fD) in …; experiment: inhibition; hemolysis, sd 0.4; conditions: protein: extract; tags: endogenous fD, about 9.6 nM in 10% serum; hairpin
Method: as §1, §2

complement Factor D (fD) [10] = biological target: T2, complement Factor D (fD); experiment: flow; bead-based direct binding, 37 C; conditions: tags: His-tagged recombinant, bead-immobilized via His capture beads (flow) or anti-His Eu (TR-FRET); hairpin
[11] = biological target: T1, complement Factor D (fD) in …; experiment: inhibition; hemolysis, sd 4.4; conditions: protein: extract; tags: endogenous fD, about 9.6 nM in 10% serum; hairpin
Method: as §1, §2

[12] = biological target: T1, complement Factor D (fD) in …; experiment: inhibition; hemolysis, sd 1.5; conditions: protein: extract; tags: endogenous fD, about 9.6 nM in 10% serum; hairpin
Method: as §1, §2

[13] = biological target: T1, complement Factor D (fD) in …; experiment: inhibition; hemolysis, sd 0.9; conditions: protein: extract; tags: endogenous fD, about 9.6 nM in 10% serum; hairpin
Method: as §1, §2

[14] = biological target: T1, complement Factor D (fD) in …; experiment: inhibition; hemolysis, sd 0.6; conditions: protein: extract; tags: endogenous fD, about 9.6 nM in 10% serum; hairpin
Method: as §1, §2

[15] = biological target: T1, complement Factor D (fD) in …; experiment: inhibition; hemolysis, sd 0.5; conditions: protein: extract; tags: endogenous fD, about 9.6 nM in 10% serum; hairpin
Method: as §1, §2

[16] = biological target: T1, complement Factor D (fD) in …; experiment: inhibition; hemolysis; Table 17 lists about 10 nM; conditions: protein: extract; tags: endogenous fD, about 9.6 nM in 10% serum; hairpin
Method: as §1

T1 sequence (P00746 26-253): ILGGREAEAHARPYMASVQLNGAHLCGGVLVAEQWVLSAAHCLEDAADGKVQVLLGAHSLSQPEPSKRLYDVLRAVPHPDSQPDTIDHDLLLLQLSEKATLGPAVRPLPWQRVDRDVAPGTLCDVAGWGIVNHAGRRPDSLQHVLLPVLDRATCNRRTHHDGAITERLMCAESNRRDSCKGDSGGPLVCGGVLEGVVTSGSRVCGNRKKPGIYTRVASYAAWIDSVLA
T2 sequence (P00746 26-253): as above

## CCGCCUUGCCAGUAUUGGCUUAGGCUGGAAGUUUGGCGG (ssRNA, 2'-F G except 2'-OMe G at 3,35,36,38,39; 2'-OMe A,C,U; 5' C6NH2; 3' idT) [Aptamer 74]
[1]
  IC50: 7 nM
Complement Factor D (fD) [2]
  Kd: 2.5 nM
Complement Factor D (fD) [3]
  Kd: 3.7 nM
Complement Factor D (fD) [4]
  Kd: 2.7 nM

## CCGACUUGCCAGUAUUGGCGAUGGCUGGAAGUUUGUCGG (ssRNA, 2'-F G except 2'-OMe G in stem 1; 2'-OMe A,C,U; 5' C6NH2; 3' idT) [Aptamer 76]
[5]
  IC50: 4.2 nM
Complement Factor D (fD) [6]
  Kd: 1.6 nM
Complement Factor D (fD) [7]
  Kd: 0.8 nM

## CGACUUGCCAGUAUUGGCGAUGGCUGGAAGUUUGUCG (ssRNA, 2'-F G except 2'-OMe G in stem 1; 2'-OMe A,C,U; 5' C6NH2; 3' idT) [Aptamer 102]
[8]
  IC50: 6.3 nM
Complement Factor D (fD) [6]
  Kd: 2.5 nM
Complement Factor D (fD) [7]
  Kd: 1.6 nM

## CCGACUUGCCAGUAUUGGCUUAGGCUGGAAGUUUGUCGG (ssRNA, 2'-F G except 2'-OMe G in stem 1; 2'-OMe A,C,U; 5' C6NH2; 3' idT) [Aptamer 106]
[9]
  IC50: 5.2 nM
Complement Factor D (fD) [6]
  Kd: 1.7 nM
Complement Factor D (fD) [7]
  Kd: 0.66 nM

## CCGCCUUGCCAGUAUUGGCUUAGGCUGGAAGUUUGGCGG (ssRNA, 2'-F G; 2'-OMe A,C,U; 5' C6NH2; 3' idT) [Aptamer 15]
Complement Factor D (fD) [10]
  Kd: 8.37 nM
[11]
  IC50: 9.4 nM

## CCGCCUUGCCAGUAUUGGCUUAGGCUGGAAGUUUGGCGG (ssRNA, 2'-F G; 2'-OMe A,C,U; 5' 40 kDa branched PEG via C6NH2; 3' idT) [P01 (PEGylated Aptamer 15)]
[12]
  IC50: 6.1 nM

## CCGACUUGCCAGUAUUGGCGAUGGCUGGAAGUUUGUCGG (ssRNA, as Aptamer 76; 5' 40 kDa branched PEG via C6NH2; 3' idT) [P06 (PEGylated Aptamer 76)]
[13]
  IC50: 4.1 nM

## CGACUUGCCAGUAUUGGCGAUGGCUGGAAGUUUGUCG (ssRNA, as Aptamer 102; 5' 40 kDa branched PEG via C6NH2; 3' idT) [P07 (PEGylated Aptamer 102)]
[14]
  IC50: 4.4 nM

## CCGACUUGCCAGUAUUGGCUUAGGCUGGAAGUUUGUCGG (ssRNA, as Aptamer 106; 5' 40 kDa branched PEG via C6NH2; 3' idT) [P08 (PEGylated Aptamer 106)]
[15]
  IC50: 4.1 nM

## CGACUUGCCAGUAUUGGCGAUGGCUGGAAGUUUGUCG (ssRNA, 2'-F G; 2'-OMe A,C,U; 5' C6NH2; 3' idT) [Aptamer 53]
[16]
  IC50: < 10 nM

Source: patent publication US20190032056, “STEM-LOOP COMPOSITIONS AND METHODS FOR INHIBITING FACTOR D” (Vitrisa Therapeutics, Inc., published 2019)
